Sequences and labels used below:
B1: Ubiquitin-protein ligase residues 30 to 86; numbered along this chain, Q05086 (parent)
chain: KHLIERYYHQLTEGCGNEACTNEFCASCPTFLRMDNNAAAIKALELYKINAKLCDPH

± gives the uncertainty stated by the source.

In the series the parent is B1. Put plainly: abundance fitness (aPCA) (normalised: wild type 0, dead -1); higher = more abundant; growth selection in yeast, the domain comes from the species named. The conditions noted are these: Homo sapiens.
For N22G, the abundance fitness is -0.318 ± 0.062.
For N22W, the abundance fitness was -0.73 ± 0.11.
As for N17T, the abundance fitness worked out at 0.014 ± 0.047.
On to N17M, for which the abundance fitness was -0.096 ± 0.065.
The same measure for N17R: -0.042 ± 0.047; for N17W: 0.005 ± 0.078; for C20D: -0.883 ± 0.45.
The same measure for C20K: -1.13 ± 0.26.
Turning to C20F, the abundance fitness is -0.889 ± 0.16.
The same measure for C20W: -0.98 ± 0.088.
With C20V, the abundance fitness is -1.02 ± 0.083.
Turning to C20N, the abundance fitness is -1.1 ± 0.31.
The same measure for L46M: -0.13 ± 0.1.
The same measure for T21A: 0.029 ± 0.054; for T21N: 0.067 ± 0.093; for I41G: 0.001 ± 0.052.
The same measure for I41Q: 0.075 ± 0.076.
As to H57T, the abundance fitness came to 0.109 ± 0.16.
The same measure for K52W: -0.437 ± 0.32; for E5L: -0.123 ± 0.045; for E5T: -0.005 ± 0.046.
As to E5C, the abundance fitness was -0.125 ± 0.049.
The same measure for E5N: 0.058 ± 0.049.
The same measure for K1A: -0.757 ± 0.29; for K1R: -0.102 ± 0.11; for K1T: -0.1 ± 0.15.
The same measure for K1V: -0.517 ± 0.23; for K1G: -0.476 ± 0.27.
For N37Q, the abundance fitness is -0.016 ± 0.093.
The same measure for N37A: 0.018 ± 0.082; for R6C: -0.271 ± 0.058.
The same measure for R6W: -0.292 ± 0.072; for R6S: -0.026 ± 0.041; for G14F: -0.865 ± 0.13.
The same measure for C25H: -0.887 ± 0.21; for C25W: -1.05 ± 0.23; for A40T: 0.08 ± 0.1.
As to A40G, the abundance fitness came to 0.046 ± 0.063.
The same measure for A40K: -0.023 ± 0.13; for P56D: -0.035 ± 0.11.
The same measure for P56Q: -0.068 ± 0.12; for P56G: 0.024 ± 0.069.
The same measure for A43E: -0.894 ± 0.1; for A43H: -0.987 ± 0.16.
For A43R, the abundance fitness was -0.717 ± 0.063.
Regarding A43C, the abundance fitness was -0.098 ± 0.075.
On to E13W, for which the abundance fitness was -0.163 ± 0.073.
Consider E13Q, for which the abundance fitness is 0.06 ± 0.082.
Regarding E13Y, the abundance fitness is -0.01 ± 0.099.
E13A: the abundance fitness is 0.029 ± 0.058.
On to E18F, for which the abundance fitness is -0.181 ± 0.13.
As for E18I, the abundance fitness was -0.075 ± 0.15.
The same measure for E18W: -0.151 ± 0.075.
Take E18S: the abundance fitness is 0.001 ± 0.064.
Regarding E18N, the abundance fitness came to 0.061 ± 0.13.
The same measure for Y7A: -0.448 ± 0.06; for Y7C: -0.65 ± 0.08.
With Y7D, the abundance fitness was -0.683 ± 0.13.
The same measure for N36Y: -0.308 ± 0.13.
The same measure for N36M: -0.181 ± 0.1; for T12A: -0.128 ± 0.058.
As to T12W, the abundance fitness is -0.359 ± 0.069.
The same measure for P29R: -0.061 ± 0.089.
The same measure for P29D: -0.252 ± 0.2.
The same measure for Y47Q: -0.03 ± 0.096.
For the variant Y47K, the abundance fitness was found to be 0.031 ± 0.12.
As for Y47N, the abundance fitness is 0.012 ± 0.14.
The same measure for F24Q: 0.016 ± 0.08; for F24Y: -0.026 ± 0.086; for F24L: -0.016 ± 0.055.
The same measure for F24T: -0.018 ± 0.065; for F24P: -0.734 ± 0.088.
The same measure for L11M: -0.14 ± 0.081; for L11E: -0.843 ± 0.081.
For the variant L11N, the abundance fitness is -0.774 ± 0.13.
The same measure for L11W: -0.904 ± 0.08.
Turning to F31G, the abundance fitness was -0.025 ± 0.059.
The same measure for Y8T: 0.091 ± 0.069; for Y8S: -0.06 ± 0.052; for Y8H: -0.015 ± 0.13.
In the case of Y8I, the abundance fitness came out at 0.018 ± 0.094.
For the variant Y8Q, the abundance fitness was determined as 0.116 ± 0.094.
The same measure for Y8A: -0.06 ± 0.07.
The same measure for A39W: -0.375 ± 0.081.
The same measure for A39L: -0.096 ± 0.083.
With A39I, the abundance fitness was -0.085 ± 0.17.
Regarding I4W, the abundance fitness is -0.208 ± 0.076.
Regarding I4L, the abundance fitness is -0.159 ± 0.061.
The same measure for I4A: -0.027 ± 0.057; for I4S: 0.012 ± 0.059; for I4T: 0.064 ± 0.072.
For I4E, the abundance fitness was -0.032 ± 0.063.
For the variant L32R, the abundance fitness was -0.033 ± 0.071.
As for L32K, the abundance fitness worked out at 0.081 ± 0.13.
Consider L32W, for which the abundance fitness was -0.193 ± 0.11.
The same measure for L32S: -0.053 ± 0.072.
The same measure for L32G: -0.034 ± 0.061; for H2T: -0.085 ± 0.099; for H2A: -0.041 ± 0.085.
The same measure for H2Y: 0.051 ± 0.094; for H2I: 0.229 ± 0.23.
As to H2C, the abundance fitness is -0.204 ± 0.081.
The same measure for H9I: 0.015 ± 0.12.
Consider H9L, for which the abundance fitness is 0.093 ± 0.06.
The same measure for H9V: -0.014 ± 0.059; for H9D: -0.189 ± 0.091.
The same measure for H9Q: 0.05 ± 0.072; for L3G: -0.129 ± 0.049; for L3W: -0.049 ± 0.057.
Regarding L3M, the abundance fitness came out at 0.048 ± 0.074.
Turning to L3N, the abundance fitness is -0.057 ± 0.11.
For the variant T30G, the abundance fitness stood at 0.025 ± 0.063.
The same measure for C28K: -0.038 ± 0.075; for A26G: -0.146 ± 0.05.
The same measure for A26R: -0.096 ± 0.05.
The same measure for A26H: -0.163 ± 0.13; for C15F: -0.885 ± 0.12.
Consider C15T, for which the abundance fitness was -0.833 ± 0.093.
The same measure for L53S: -0.097 ± 0.074.
The same measure for L53H: -0.191 ± 0.15; for L53E: -0.068 ± 0.099; for L53T: -0.109 ± 0.081.
In the case of E23F, the abundance fitness is -0.084 ± 0.11.
The same measure for E23H: -0.09 ± 0.1; for E23A: -0.077 ± 0.058; for E23S: -0.001 ± 0.064.
Take N50K: the abundance fitness is -0.095 ± 0.1.
For L44T, the abundance fitness is 0.118 ± 0.1.
Consider L44I, for which the abundance fitness was found to be 0.173 ± 0.23.
The same measure for L44F: -0.122 ± 0.13; for L44H: -0.096 ± 0.16; for G16M: -0.179 ± 0.065.
The same measure for G16Y: -0.117 ± 0.1.
The same measure for G16F: -0.221 ± 0.12; for K48M: -0.424 ± 0.08; for K48G: -0.188 ± 0.05.
For the variant K48C, the abundance fitness was -0.427 ± 0.096.
With K48R, the abundance fitness was -0.072 ± 0.052.
The same measure for K48A: -0.17 ± 0.059; for K48F: -0.682 ± 0.13; for R33Y: -0.19 ± 0.14.
The same measure for R33A: -0.099 ± 0.087; for A38K: -0.044 ± 0.13; for A38I: -0.166 ± 0.16.
The same measure for A38E: -0.108 ± 0.11.
With S27F, the abundance fitness is -0.349 ± 0.082.
The same measure for S27L: -0.523 ± 0.058; for S27Y: -0.441 ± 0.1; for S27C: -0.061 ± 0.072.
The same measure for A51Q: -0.289 ± 0.099; for A51F: -0.053 ± 0.14; for A51H: -0.147 ± 0.13.
The same measure for A51K: -0.093 ± 0.12; for A51V: -0.082 ± 0.055.
In the case of M34N, the abundance fitness is -0.279 ± 0.27.
For the variant M34Q, the abundance fitness is -0.074 ± 0.11.
As for M34V, the abundance fitness is -0.023 ± 0.074.
In the case of E45N, the abundance fitness turned out to be 0.11 ± 0.19.
With E45A, the abundance fitness is -0.087 ± 0.083.
The same measure for E45M: -0.181 ± 0.14.
The same measure for D35A: -0.067 ± 0.074; for D35N: -0.094 ± 0.094; for D35Q: -0.084 ± 0.13.
The same measure for D35W: -0.308 ± 0.083; for A19P: -0.084 ± 0.062; for A19H: -0.006 ± 0.1.
In the case of A19M, the abundance fitness is 0.011 ± 0.067.

Values taken from the Human Domainome abundance scans (Beltran et al. 2025).
